# Test results from patent US20240182556A1 (OPSIDIO, published 2024).
# Positions count from the first letter of the chain named. In names and notes the source's numbering stands.
# T1: PE9413, C-terminal biotinylated peptide mapping on Exon6 of the SCF molecule (SCF248) (C-terminal biotin)
# T1 construct: also called C-terminal biotinylated PE9413; C-ter PE9413
# T1 peptide: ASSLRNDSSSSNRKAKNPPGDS
# T2: N-terminal biotinylated PE9413 (not fully specified; N-terminal biotin)
# T2 construct: also called PE9411; N-ter PE9413
# T2 peptide: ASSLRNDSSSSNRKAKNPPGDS
# B1: parental humanized 5H10 VK3/VH1 scFv (VH-linker-VL-SV5tag) displayed on yeast (scFv, V domains shown)
# VH: QVQLVQSGAELKKPGSSVKISCKSSGYAFSSYWMNWVKQRPGQGLEWIGQIYPGDGDTHYNGKFKGKATLTADKSTSTAYMELSSLTSEDSAVYFCSSSNWVGSYWGQGTLVTVSS
# VL: DVVMTQSPLSLPVTLGQPASISCKSSQSLLESDGKTYLNWLQQRPGQSPRRLIYLVSRLDSGVPDRFSGSGSGTDFTLKISRVEAEDVGVYYCWQGTHLPQTFGGGTKVEIK
# notes: also called parental scFv; parental antibody; not shown: linker; SV5 tag
# B2: B104P scFv displayed on yeast (scFv, V domains shown)
# VH: B1 VH with Y32Q, G54D, G62D
# VL: B1 VL with S32A, K35N, S57D, H98D
# notes: Aga2-anchored, VH-VL orientation; not shown: linker; SV5 tag
# B3: A84P scFv displayed on yeast (scFv, V domains shown)
# VH: B1 VH with Y32Q, G54E, Y60M
# VL: B1 VL with S32E, K35N, S57D, S61I, H98D
# notes: as for B2
# B4: F54P scFv displayed on yeast (scFv, V domains shown)
# VH: B1 VH with Y32Q, G54E, Y60M, G66T
# VL: B1 VL with S32E, K35N, S57D, H98D
# notes: as for B2
# B5: B114P scFv displayed on yeast (scFv, V domains shown)
# VH: B1 VH with Y32Q, G54E, Y60M, V102D
# VL: B1 VL with S32E, K35N, S57D, H98D
# notes: as for B2
# B6: G104P scFv displayed on yeast (scFv, V domains shown)
# VH: B1 VH with Y32Q, Y60M
# VL: B1 VL with S32E, K35N, S57D, S61D, H98D
# notes: as for B2
# B7: B124P scFv displayed on yeast (scFv, V domains shown)
# VH: B1 VH with Y32N, G54E, G62D
# VL: B1 VL with S32Q, K35N, S57D, H98D
# notes: as for B2
# B8: D14P scFv displayed on yeast (scFv, V domains shown)
# VH: B1 VH with Y32Q, G56D, G62D
# VL: B1 VL with K35N, S57D, S61L, H98D
# notes: as for B2
# B9: A64P scFv displayed on yeast (scFv, V domains shown)
# VH: B1 VH with Y32N, G54E
# VL: B1 VL with S32E, K35N, S57N, S61D, H98D
# notes: as for B2
# B10: H83P scFv displayed on yeast (scFv, V domains shown)
# VH: B1 VH with Y32Q, T58I, G62D
# VL: B1 VL with K35N, S57D, H98D
# notes: as for B2
# B11: H74P scFv displayed on yeast (scFv, V domains shown)
# VH: B1 VH with Y32Q, G54E
# VL: B1 VL with S32E, K35N, S57D, S61L, T97S
# notes: as for B2
# B12: A104P scFv displayed on yeast (scFv, V domains shown)
# VH: B1 VH with Y32Q, G54E
# VL: B1 VL with S32E, K35N, S57D, H98D
# notes: as for B2
# B13: D44P scFv displayed on yeast (scFv, V domains shown)
# VH: B1 VH with Y32Q, G54E, T58I
# VL: B1 VL with S32E, K35N, S57D, T97S
# notes: as for B2
# Tests used:
# [1] = target: T1, PE9413, C-terminal biotinylated peptide …; assay: yeast-displayed scFv, flow cytometry titration of biotinylated peptide (FIG. 16D)
# Description: Yeast display methods were conducted as described by Ferrara et al. Briefly, cells were induced in induction media overnight at 20° C. 10⁵ induced cells were washed twice with wash buffer (PBS supplemented with 0.5% BSA) and incubated at room temperature with the biotinylated antigen diluted in PBS. To assess binding of the scFv, a C-terminal biotinylated peptide mapping on Exon6 of the SCF molecule was used (referred to herein as “PE9413”). […] The induced yeast population was stained with biotinylated PE9413 at different concentrations ranging from 50 nM to 2 μM (0 nM, 50 nM, 100 nM, 250 nM, 500 nM, 750 nM, 1000 nM, or 2000 nM). Volumes and incubation times were carefully adjusted according to parameters described in [3]. After the incubation with the target peptide, the yeast cells were washed twice with cold wash buffer and subsequently incubated at 4° C. for an additional 30 minutes with fluorescently labelled streptavidin (Streptavidin-AlexaFlu633), to detect binding of the biotinylated PE9413, and with the labelled anti-SV5 (anti-SV5-PE), to detect the scFv display levels on yeast cells. Following 2 washes with cold yeast wash buffer, the cells were resuspended in cold PBS and analyzed in the flow cytometer (FIG. 1).
# The FACS sorted population was sorted kinetically to find clones with an improved Koff compared to the parenteral scFv. […]
# [2] = target: T1, PE9413, C-terminal biotinylated peptide …; assay: yeast-displayed scFv, flow cytometry titration of biotinylated peptide
# [3] = target: T1, PE9413, C-terminal biotinylated peptide …; assay: as above
# Description: The binding of the selected 48 clones described above to 170 nM of C-terminal biotinylated PE9413 was evaluated. The 24 clones with the highest binding signal were further evaluated for binding affinity. Each clone was incubated with increasing amounts of biotinylated PE9413, and stained with a fluorescently labeled anti-streptavidin antibody. Binding of the clone to PE9413 was analyzed by flow cytometry. A plot of concentration of PE9413 versus the median fluorescent signal of the yeast cell population that bound to PE9413 was used to estimate the binding affinity (KD) of each clone to C-terminal biotinylated PE9413. […]
# [4] = target: T1, PE9413, C-terminal biotinylated peptide …; assay: as above
# Description: The binding of the selected 48 clones described above to 170 nM of C-terminal biotinylated PE9413 was evaluated. The 24 clones with the highest binding signal were further evaluated for binding affinity. Each clone was incubated with increasing amounts of biotinylated PE9413, and stained with a fluorescently labeled anti-streptavidin antibody. Binding of the clone to PE9413 was analyzed by flow cytometry. A plot of concentration of PE9413 versus the median fluorescent signal of the yeast cell population that bound to PE9413 was used to estimate the binding affinity (KD) of each clone to C-terminal biotinylated PE9413.
# [5] = target: T2, N-terminal biotinylated PE9413; assay: yeast-displayed scFv, flow cytometry titration of N-terminal biotinylated peptide
# Description: The affinity of the 12 best clones for the N-terminal biotinylated target peptide […] was also evaluated. Each clone was incubated with increasing amounts of N-terminal biotinylated PE9413, and stained with a fluorescently labeled anti-streptavidin antibody. Binding of the clone to N-terminal biotinylated PE9413 was analyzed by flow cytometry. A plot of concentration of PE9413 versus the median fluorescent signal of the yeast cell population that bound to PE9413 was used to estimate the binding affinity (KD) of each clone to N-terminal biotinylated PE9413. The tested clones were confirmed to have improved affinities over the parental antibody 5H10 against the target sequence PE9413, regardless of the biotinylation modification, as reported in Table A3 and FIG. 12.
Binder,Kd [1],Kd [2],Kd [3],Kd [4],Kd [5]
B1,232 nM,174 nM,–,–,–
B2,–,–,4.52 nM,4.52 nM,6.38 nM
B3,–,–,2.52 nM,2.52 nM,3.93 nM
B4,–,–,4.09 nM,4.09 nM,5.66 nM
B5,–,–,3.63 nM,3.63 nM,7.14 nM
B6,–,–,–,7.09 nM,–
B7,–,–,3.82 nM,3.82 nM,5 nM
B8,–,–,4.39 nM,4.39 nM,5.38 nM
B9,–,–,3.29 nM,3.29 nM,5.23 nM
B10,–,–,4.08 nM,4.08 nM,5.3 nM
B11,–,–,3.84 nM,3.84 nM,4.9 nM
B12,–,–,3.64 nM,3.64 nM,5.85 nM
B13,–,–,4.18 nM,4.18 nM,4.61 nM
